How the values were obtained:
[1] = target: T1, cMet (HGFR) ectodomain, cMet-Fc (human, UniProt P08581 P08581:25-932); test: competition; filter retention vs 32P-trCLN3; ~50 nM cMet; 1x PBS pH 7.4, 2 mM MgCl2, tRNA, BSA, 37 C; conditions: tags: Fc domain of human IgG1 fusion, R&D Systems; chain copies: 2; G4, micellar nanoconstruct above CMC 300-350 nM
Method: (§1) To determine the affinity, ˜25 fmol of radiolabeled aptamer was incubated with a cMet concentration of ˜50 nM together with varying concentrations (1 μM-25 μM) of unlabeled competitor for 30 min at 37° C. in 25 μL of buffer containing 0.1 mg/ml E.coli tRNA (Roche, Mannheim, Germany), 0.25 mg/ml BSA, 2 mM MgCl₂ in 1× PBS, pH 7.4. The aptamer-protein complexes were captured on a Protran nitrocellulose membrane (GE Healthcare) that was pre-incubated in 0.4 M KOH for 10 minutes, followed by washing with 1× PBS containing 2 mM MgCl₂, pH 7.4. After addition of the aptamer-protein solution, the filter was washed 4 times with lx PBS containing 2 mM MgCl₂ using vacuum filtration. Residual radioactivity due to cMet bound labeled aptamers was quantified using Fujifilm Fla-3000 Phosphorlmager and AIDA software. The curves were fitted with GraphPadPrism 3.02 plotting non-linear regression curve and the IC₅₀ values have been calculated assuming a competition for single binding site.
(§2) To test the influence of lipid tails on aptamer binding, a competitive filter-binding assay was carried out using the methodology above. Varying concentrations of unlabeled 5′-lipid functionalized aptamer 3 and its two-point mutant variant trCLN3.mut-L4 (see Example 2.3) competed with a constant amount of ³²P-radio-labeled native trCLN3 aptamer in binding to cMet.

[2] = target: T1, cMet (HGFR) ectodomain, cMet-Fc; test: competition; no competition with 32P-trCLN3 within tested concentration range; conditions: tags: Fc domain of human IgG1 fusion, R&D Systems; chain copies: 2
Method: as §1, §2

[3] = target: T1, cMet (HGFR) ectodomain, cMet-Fc; test: filter; almost no binding in filter retention assay; conditions: tags: Fc domain of human IgG1 fusion, R&D Systems; chain copies: 2

T1 sequence (P08581 25-932, one chain of several): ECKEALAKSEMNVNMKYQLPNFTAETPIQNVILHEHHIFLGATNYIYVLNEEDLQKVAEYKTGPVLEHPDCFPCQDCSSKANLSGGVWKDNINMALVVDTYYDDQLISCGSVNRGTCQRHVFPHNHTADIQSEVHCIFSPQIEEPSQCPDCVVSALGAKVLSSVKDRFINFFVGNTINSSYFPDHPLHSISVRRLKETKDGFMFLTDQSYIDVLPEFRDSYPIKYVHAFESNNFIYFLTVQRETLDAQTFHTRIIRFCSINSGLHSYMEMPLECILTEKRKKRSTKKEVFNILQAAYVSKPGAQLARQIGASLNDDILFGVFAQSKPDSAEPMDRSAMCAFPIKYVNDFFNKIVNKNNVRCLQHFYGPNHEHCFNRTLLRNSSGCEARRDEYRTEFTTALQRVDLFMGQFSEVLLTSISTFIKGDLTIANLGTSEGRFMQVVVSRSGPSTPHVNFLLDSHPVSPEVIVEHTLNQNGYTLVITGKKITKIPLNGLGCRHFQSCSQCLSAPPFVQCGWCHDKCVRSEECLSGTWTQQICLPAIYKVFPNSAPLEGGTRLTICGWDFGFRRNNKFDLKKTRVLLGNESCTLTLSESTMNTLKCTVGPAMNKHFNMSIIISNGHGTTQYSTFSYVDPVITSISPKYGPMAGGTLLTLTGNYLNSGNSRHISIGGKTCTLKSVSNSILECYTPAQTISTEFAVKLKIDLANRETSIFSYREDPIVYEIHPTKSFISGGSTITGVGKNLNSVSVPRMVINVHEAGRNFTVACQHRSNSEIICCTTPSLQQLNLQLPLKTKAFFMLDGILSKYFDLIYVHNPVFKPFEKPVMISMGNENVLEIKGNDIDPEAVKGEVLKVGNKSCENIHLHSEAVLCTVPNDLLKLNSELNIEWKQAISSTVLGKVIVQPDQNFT

**Q.** Which IC50 [1] does the source give for TGGATGGTAGCTCGGTCGGGGTGGGTGGGTTGGCAAGTCT (structured_DNA, four 5-(1-dodecynyl)-2'-deoxyuridine (C12 lipid) residues at 5' end) [trCLN3-L4] here?
**A.** 43 nM

**Q.** Does TGGATGATAGCTCGGTCGGGGTGGATGGGTTGGCAAGTCT (ssDNA, four 5-(1-dodecynyl)-2'-deoxyuridine (C12 lipid) residues at 5' end) [trCLN3.mut-L4] bind [2]?
**A.** no binding

**Q.** Does TGGATGATAGCTCGGTCGGGGTGGATGGGTTGGCAAGTCT (ssDNA) [trCLN3.mut] bind [3]?
**A.** no binding

Source: patent US20200123547, “NUCLEIC ACID-BASED ASSEMBLY AND USES THEREOF” (Rheinische Friedrich-Wilhelms-Universität Bonn, published 2020)
